Consider one molecule from US20260250711A1 (Alexion, published 2026).

This test deals with T1, human sortilin receptor (SORT1), recombinant protein (human, UniProt Q99523 78-755, limits assumed).
T1 construct: Recombinant protein; also called sortilin 1
T1 sequence (looked up): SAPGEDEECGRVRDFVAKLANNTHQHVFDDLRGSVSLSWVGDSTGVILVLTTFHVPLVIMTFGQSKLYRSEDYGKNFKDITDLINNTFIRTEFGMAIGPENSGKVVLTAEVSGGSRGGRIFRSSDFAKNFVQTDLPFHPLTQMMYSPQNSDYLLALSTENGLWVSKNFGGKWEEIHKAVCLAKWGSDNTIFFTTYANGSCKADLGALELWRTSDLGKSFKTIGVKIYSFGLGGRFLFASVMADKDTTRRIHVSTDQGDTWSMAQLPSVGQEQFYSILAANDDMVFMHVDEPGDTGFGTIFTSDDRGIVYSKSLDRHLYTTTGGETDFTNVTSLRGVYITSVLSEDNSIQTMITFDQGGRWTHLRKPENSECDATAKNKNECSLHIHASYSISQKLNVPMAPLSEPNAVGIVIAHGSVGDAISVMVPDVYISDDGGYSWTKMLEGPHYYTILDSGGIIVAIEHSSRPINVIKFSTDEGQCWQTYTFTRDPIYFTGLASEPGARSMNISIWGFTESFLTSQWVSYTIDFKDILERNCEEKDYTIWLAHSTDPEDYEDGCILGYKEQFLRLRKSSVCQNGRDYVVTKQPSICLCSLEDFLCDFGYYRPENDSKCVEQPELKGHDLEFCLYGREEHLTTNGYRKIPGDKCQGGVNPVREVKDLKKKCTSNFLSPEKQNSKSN
As to the kind of experiment: Biacore (SPR), His-tagged PGRNΔ3 over immobilized human sortilin. In general terms: Surface plasmon resonance follows binding to a sensor surface in real time, without labels.

B1: recombinant human His-tagged progranulin lacking the final three carboxy-terminal amino acids (PGRNΔ3) (ligand)
chain: TRCPDGQFCPVACCLDPGGASYSCCRPLLDKWPTTLSRHLGGPCQVDAHCSAGHSCIFTVSGTSSCCPFPEAVACGDGHHCCPRGFHCSADGRSCFQRSGNNSVGAIQCPDSQFECPDFSTCCVMVDGSWGCCPMPQASCCEDRVHCCPHGAFCDLVHTRCITPTGTHPLAKKLPAQRTNRAVALSSSVMCPDARSRCPDGSTCCELPSGKYGCCPMPNATCCSDHLHCCPQDTVCDLIQSKCLSKENATTDLLTKLPAHTVGDVKCDMEVSCPDGYTCCRLQSGAWGCCPFTQAVCCEDHIHCCPAGFTCDTQKGTCEQGPHQVPWMEKAPAHLSLPDPQALKRDVPCDNVSSCPSSDTCCQLTSGEWGCCPIPEAVCCSDHQHCCPQGYTCVAEGQCQRGSEIVAGLEKMPARRASLSHPRDIGCDQHTSCPVGQTCCPSLGGSWACCQLPHAVCCEDRQHCCPAGYTCNVKARSCEKEVVSAQPATFLARSPHVGVKDVECGEGHFCHDNQTCCRDNRQGWACCPYRQGVCCADRRHCCPAGFRCAARGTKCLRREAPRWDAPLRDPALR
notes: also called PGRNDel3; progranulinΔ3; not shown: HIS-tag fused to the N-terminal part of the protein
Turning to B1, the binding result was “no binding”.
